How the values were obtained:
Assay in all cases: ITC; 250 μM PabB titrated into 25 μM PabA in the cell; 25 °C; 50 mM Tris/HCl pH 7.5, 50 mM KCl, 5 mM MgCl2; without Cho and Gln; one set of sites
Conditions in all cases: both partners purified
[1] = target: T1, PabB variant bY210A (Escherichia coli, UniProt P05041 1-453, bY210A)
T1 construct: PabB, synthase subunit of ADCS, E. coli; construct as m2 with one exchange; Made by QuikChange mutagenesis from the construct of m2; source: E. coli BL21-Gold (DE3), purified (Ni-IMAC, preparative gel filtration)
T1 sequence: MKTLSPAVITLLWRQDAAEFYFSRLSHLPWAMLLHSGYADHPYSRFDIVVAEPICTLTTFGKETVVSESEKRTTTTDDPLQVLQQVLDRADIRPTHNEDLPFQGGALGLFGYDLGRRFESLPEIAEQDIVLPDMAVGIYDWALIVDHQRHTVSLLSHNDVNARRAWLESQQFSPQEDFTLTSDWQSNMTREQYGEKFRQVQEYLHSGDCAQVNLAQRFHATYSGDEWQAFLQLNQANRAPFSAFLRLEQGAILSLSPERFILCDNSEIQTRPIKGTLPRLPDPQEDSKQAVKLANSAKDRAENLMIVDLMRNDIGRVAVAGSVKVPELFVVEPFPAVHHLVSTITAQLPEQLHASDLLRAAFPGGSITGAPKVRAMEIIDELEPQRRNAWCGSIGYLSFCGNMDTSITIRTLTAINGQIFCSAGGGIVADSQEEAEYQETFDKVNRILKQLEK

[2] = target: T2, PabB variant bE119D (Escherichia coli, UniProt P05041 1-453, bE119D)
T2 construct: PabB, synthase subunit of ADCS, E. coli; construct as m2 with one exchange; Made by QuikChange mutagenesis from the construct of m2; source: E. coli BL21-Gold (DE3), purified (Ni-IMAC, preparative gel filtration)
T2 sequence: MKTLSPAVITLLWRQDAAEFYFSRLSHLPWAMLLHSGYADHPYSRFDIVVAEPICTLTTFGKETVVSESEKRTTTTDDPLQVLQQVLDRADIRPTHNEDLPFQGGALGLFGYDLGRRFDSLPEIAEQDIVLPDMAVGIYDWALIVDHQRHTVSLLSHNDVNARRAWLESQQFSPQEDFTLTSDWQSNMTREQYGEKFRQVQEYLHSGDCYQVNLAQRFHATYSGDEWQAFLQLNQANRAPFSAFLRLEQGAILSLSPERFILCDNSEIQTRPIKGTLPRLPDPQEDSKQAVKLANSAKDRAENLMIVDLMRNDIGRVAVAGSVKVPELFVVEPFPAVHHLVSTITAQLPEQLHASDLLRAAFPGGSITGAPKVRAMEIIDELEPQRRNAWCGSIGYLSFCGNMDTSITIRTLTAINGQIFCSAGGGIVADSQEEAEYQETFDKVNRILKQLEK

[3] = target: T3, PabB variant bD308E (Escherichia coli, UniProt P05041 1-453, bD308E)
T3 construct: PabB, synthase subunit of ADCS, E. coli; construct as m2 with one exchange; Made by QuikChange mutagenesis from the construct of m2; source: E. coli BL21-Gold (DE3), purified (Ni-IMAC, preparative gel filtration)
T3 sequence: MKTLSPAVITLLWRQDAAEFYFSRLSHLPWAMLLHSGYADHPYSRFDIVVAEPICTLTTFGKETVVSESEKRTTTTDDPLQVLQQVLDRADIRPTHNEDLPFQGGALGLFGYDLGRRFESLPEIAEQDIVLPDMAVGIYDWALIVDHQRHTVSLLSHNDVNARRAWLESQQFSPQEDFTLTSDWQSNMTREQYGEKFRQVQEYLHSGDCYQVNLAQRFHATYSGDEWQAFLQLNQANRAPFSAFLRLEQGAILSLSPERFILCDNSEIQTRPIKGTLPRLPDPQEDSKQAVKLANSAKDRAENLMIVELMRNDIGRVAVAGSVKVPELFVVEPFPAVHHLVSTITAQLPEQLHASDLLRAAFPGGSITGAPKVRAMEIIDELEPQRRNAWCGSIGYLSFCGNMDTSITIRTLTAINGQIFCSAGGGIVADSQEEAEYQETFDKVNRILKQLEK

[4] = target: T4, PabB, synthase subunit of aminodeoxychorismate synthase (ADCS) from Escherichia coli, wild type (Escherichia coli, UniProt P05041 1-453)
T4 construct: PabB, synthase subunit of ADCS, E. coli; the gene was cloned into pET28a; Form used for SEC, ITC and kinetics; TEV cleavage is told only of the proteins used for crystallization; also called wt PabB; ADCS synthase subunit; source: E. coli BL21-Gold (DE3), purified (Ni-IMAC, preparative gel filtration)
T4 sequence: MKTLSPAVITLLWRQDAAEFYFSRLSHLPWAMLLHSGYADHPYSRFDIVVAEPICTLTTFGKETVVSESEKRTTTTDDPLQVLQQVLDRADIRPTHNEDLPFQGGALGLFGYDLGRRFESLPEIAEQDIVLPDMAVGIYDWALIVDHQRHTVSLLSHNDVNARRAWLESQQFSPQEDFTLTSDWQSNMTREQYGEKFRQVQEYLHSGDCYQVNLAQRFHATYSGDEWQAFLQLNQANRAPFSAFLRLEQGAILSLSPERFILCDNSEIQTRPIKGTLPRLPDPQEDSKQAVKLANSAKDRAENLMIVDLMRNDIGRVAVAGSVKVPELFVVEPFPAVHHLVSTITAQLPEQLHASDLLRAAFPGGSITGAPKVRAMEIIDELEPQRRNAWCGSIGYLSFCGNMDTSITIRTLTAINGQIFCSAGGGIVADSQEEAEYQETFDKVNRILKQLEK

Kd [1]: 5500 nM
Kd [2]: 840 nM
Kd [3]: 1700 nM
Kd [4]: 160 nM
B1: PabA, glutaminase subunit of aminodeoxychorismate synthase (ADCS) from Escherichia coli, wild type (enzyme)
chain: MILLIDNYDSFTWNLYQYFCELGADVLVKRNDALTLADIDALKPQKIVISPGPCTPDEAGISLDVIRHYAGRLPILGVCLGHQAMAQAFGGKVVRAAKVMHGKTSPITHNGEGVFRGLANPLTVTRYHSLVVEPDSLPACFDVTAWSETREIMGIRHRQWDLEGVQFHPESILSEQGHQLLANFLHR
notes: PabA, class I glutaminase subunit of ADCS, E. coli; the gene was cloned into pET28a; Form used for SEC, ITC and kinetics; TEV cleavage is told only of the proteins used for crystallization; The G5H-Tag stands between the TEV site and the start methionine of PabA; also called wt PabA; ADCS glutaminase subunit; source: E. coli BL21-Gold (DE3), purified (Ni-IMAC, preparative gel filtration)
